This data set relates to K4 kissing-loop RNA reporter. The data set can be described thus: apparent KD of K4 kissing-loop reporter; higher = weaker reporter binding. The note with it: Eterna round: R107. The procedure:
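RNA-MaP round R107: designed RNA switches with theophylline, tryptophan, arginine or FMN aptamers are transcribed on-chip within common flanks. They are titrated with a labelled K4 kissing-loop RNA reporter in RNA-MaP buffer (100 mM Tris pH 7.5, 80 mM KCl, 4 mM MgCl2), without ligand or with the indicated ligand. Median apparent KD per design.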

The mark [1] stands for this setting: input ligand: theophylline 20 uM.
[2] abbreviates: input ligand: tryptophan 2.4 mM.
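Note: bound reporter read as fluorescence of individual clusters on recovered sequencing chips by microscopy, with normalized cluster intensities fitted with a binding model.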

As to “CGCCGAUUGUCGGAGUGAUGUUCCCGGGAUACCAGCACGUCGUCAUGCCCUUGGCAGCCCAACAGACCAUUUUAAAGGCUAGCUG [theeternabot_sameState_KL_Theo_A_35]”, the “apparent KD of K4 kissing-loop reporter” value (input ligand: FMN 200 uM) came to 0.331 µM; the “apparent KD of K4 kissing-loop reporter” value (input ligand: arginine 13.2 mM) was 0.0978 µM; the “apparent KD of K4 kissing-loop reporter” value (input ligand: none) amounted to 0.122 µM; the “apparent KD of K4 kissing-loop reporter” value under setting [1] was determined as 0.221 µM; the “apparent KD of K4 kissing-loop reporter” value under setting [2] came out at 0.158 µM.
On the same counts, the results for “CGCCGGAAGGCGAGCGCUCCCACUCCGGAAGGAGCGCCCGGAAGGGCAGGUAGGUCGCCGGAGUGAUGUUCCGGUGGAGGGCUCG [#2 Exclusion - Arginine A Attempt #11 (Inspired by Omei)]” are 0.171 µM, 0.058 µM, 0.164 µM, 0.0993 µM and 0.0999 µM.
For “CGCGGCCGGCCGGAUACCAGUGACCCGCUGGAAACCGCGGGCCCAGAGUGAUGUUCGGGACACCCUUGGCAGCCGCCUGGGCGUG [#2 Same State - Theophylline B Attempt #2 (HarryS)]” the same measures were 0.547 µM, 0.309 µM, 0.44 µM, 0.456 µM and 0.397 µM.
For the sequence “CGCUGGGCGAGUGAUGUUCGCUCACGUGAUACCAGUGCAAUCCAACACCCUUGGCAGCACGCGGGCAGUGAUGUUGUCCUUAGUG [Exclusion Theophylline A GF12]”, the “apparent KD of K4 kissing-loop reporter” value (input ligand: FMN 200 uM) stood at 0.16 µM; the “apparent KD of K4 kissing-loop reporter” value (input ligand: arginine 13.2 mM) was 0.149 µM; the “apparent KD of K4 kissing-loop reporter” value (input ligand: none) was found to be 0.157 µM; the “apparent KD of K4 kissing-loop reporter” value under setting [1] stood at 0.143 µM; the “apparent KD of K4 kissing-loop reporter” value under setting [2] is 0.127 µM.
For “CGUGAAUGUCGUCAGUCAUCGGUCCAUGCACGAGGACCGGUACGGCCGCCACUCGAGCGUGGCAGUGAUGUUGCCAGCGCACUAA [KL-XTryp-A13]”, the “apparent KD of K4 kissing-loop reporter” value was 0.138 µM (input ligand: FMN 200 uM); 0.115 µM (input ligand: arginine 13.2 mM); 0.128 µM (input ligand: none); 0.137 µM under setting [1]; 0.315 µM under setting [2].
On the same counts, the results for “CGUUCAUCCUAGGCGUGAGUGAUGUUUACCCGAGGACCGGUACGGCCGCCACUCGUAUGGCGAGAGUUUAGCCAUUUCCAAUAUA [theeternabot_exclusion_KL_Trp_A_17]” are 0.465 µM, 0.403 µM, 0.503 µM, 0.505 µM and 0.398 µM.
On the same counts, the results for “CGUUUCUCUGUCGAUACCAGCUUCAGUUGGCGGCCAGUGAUGUUGGUAUCGCCGAUGCCAAGCCCUUGGCAGCGACAUGAGACCC [Gezausin]” are 0.169 µM, 0.163 µM, 0.193 µM, 0.128 µM and 0.166 µM.
On the same counts, the results for “CUAUCUUAAGAAGGAUAUUAUGUAACAAACGCAGGCGUAUUAGAAUCAGUGAUGUUGAAAUAGGUUUAAGAAGGUCUUAAAGAAA [theeternabot_sameState_KL_FMN_B_31]” are 0.593 µM, 0.422 µM, 0.326 µM, 0.608 µM and 0.243 µM.
For “CUCCGACUAUCGGCCGCCACUAUCGGAAAGUCCACGGACAUUCAAUGCAGUUAGUGAUGUUAACGUAGGACCGGGAUGAUUUGUA [theeternabot_sameState_KL_Trp_B_9]”, the “apparent KD of K4 kissing-loop reporter” value (input ligand: FMN 200 uM) was found to be 0.543 µM; the “apparent KD of K4 kissing-loop reporter” value (input ligand: arginine 13.2 mM) was found to be 0.35 µM; the “apparent KD of K4 kissing-loop reporter” value (input ligand: none) stood at 0.659 µM; the “apparent KD of K4 kissing-loop reporter” value under setting [1] came to 0.541 µM; the “apparent KD of K4 kissing-loop reporter” value under setting [2] amounted to 0.491 µM.
For “CUCGAGUGAUGUUCGAUUAUUUAUACAGAUACCAGUGAAUUUUAACACCCUUGGCAGCUGGUUGUAUCAUUGUUUUUUACAAAAG [JR_ExcTheophyA_Sub007]” the same measures were 0.113 µM, 0.167 µM, 0.117 µM, 0.195 µM and 0.1 µM.
Take “CUCGUGGGUUUGAGAGGGUUUGUGGGAAGUGAGGAUAUUUAGGGAGAAAGAAGGCACUAUAAAAUAUAGUGAUGUUAUAUAAGGG [SSFMNA.L]”: the “apparent KD of K4 kissing-loop reporter” value (input ligand: FMN 200 uM) worked out at 0.277 µM; the “apparent KD of K4 kissing-loop reporter” value (input ligand: arginine 13.2 mM) amounted to 0.141 µM; the “apparent KD of K4 kissing-loop reporter” value (input ligand: none) stood at 0.325 µM; the “apparent KD of K4 kissing-loop reporter” value under setting [1] came to 0.194 µM; the “apparent KD of K4 kissing-loop reporter” value under setting [2] amounted to 0.198 µM.
As to “CUCUUCUUUCUUUUAGUGAUGUUAAAUUAGCGAGGACCGGUACGGCCGCCACUCGUAUAGCUGGAAUGACUGUGCGAGGGUUUGU”, the “apparent KD of K4 kissing-loop reporter” value runs as follows: (input ligand: FMN 200 uM) 0.96 µM; (input ligand: arginine 13.2 mM) 0.514 µM; (input ligand: none) 0.905 µM; under setting [1], 0.522 µM; under setting [2], 0.79 µM.
For “CUGACUCAAUAGUCAGUGAUGUUGACUGGACGAGGACCGGUACGGCCGCCACUCGAGAGUGGUGUAAAAUAUGUCACAGAGUCAG [Tryp A SS t3b]” the same measures were 0.186 µM, 0.194 µM, 0.208 µM, 0.182 µM and 0.2 µM.
On the same counts, the results for “CUGCAACAUAACUUCUUCGUCCUAGAAGACUAGGAUAUCAGGAAACUGAGAAGGAGUCUCUGCAGUGAUGUUGCAGCUAGGACGA [[K]'-[F2]'-[F1]'-[F1]-[F2]-[K1]-[K2]-[F]''_Design3]” are 0.195 µM, 0.159 µM, 0.148 µM, 0.197 µM and 0.173 µM.
For “CUGGGUUGACGAAAAGUCAACAAAAGAGAAGGAGCGCACGAAAGUGCAGGUAGGUCGCUCAGUCCAGUGAUGUUGGAUCAUCCAG [#SwitchBubble 11 #K4Late]” the same measures were 0.324 µM, 0.502 µM, 0.484 µM, 0.454 µM and 0.346 µM.
Regarding “CUGUUUGGUUGAGAGGUUGGGCGGAAUGAUACCAGUAUAUAAGAAUACCCUUGGCAGCAUAAGAAAGAUAUAGUGAUGUUGUAUA [SSTheophA.K]”, the “apparent KD of K4 kissing-loop reporter” value runs as follows: (input ligand: FMN 200 uM) 0.526 µM; (input ligand: arginine 13.2 mM) 0.297 µM; (input ligand: none) 0.464 µM; under setting [1], 0.536 µM; under setting [2], 0.417 µM.
On the same counts, the results for “CUUAGGAGUGGUGUUGAUUAGGGAGCGGAAGGAGCGCCAAUGAUGGCAGGUAGGUCGCCGGAAUAUAGUGAUGUUAUAUAGAGGG [ExArgA.Q]” are 0.273 µM, 0.252 µM, 0.592 µM, 0.29 µM and 0.222 µM.

The record behind these values is the supplement of paper PMC9170038.
